Literature values in article PMC13341169.
Read-outs that look alike come from different tables or passages of the source.

Tests used:
[1] = target: PKA C-subunit (Homo sapiens) (UniProt P17612)
[2] = target: PKA C-subunit (Homo sapiens) (UniProt P17612); remark: listed apart in the source

| Kd [1] | Kd [2] | Substance |
| --- | --- | --- |
| 7.1 nM |  | PKIβ (from UniProt Q9C010) |
|  | 0.4 nM | PKIγ (from UniProt Q9Y2B9) |
